Patent publication US10456446B2, “Use of human small leucine zipper protein in osteogenesis procedure” (Korea University Research and Business Foundation, priority 2013, dated 2019)

Columns and labels:
[1] = target: T1, PPARγ2 and HDAC3 (Homo sapiens, UniProt P37231); test: GST pull-down, effect on interaction between PPARγ2 and HDAC3; format: binding; details: in the presence of ligand (10 nM RZD, 24 hours)
T1 construct: expressed in transfected cells; host or cells: 293T
T1 sequence (P37231 1-505): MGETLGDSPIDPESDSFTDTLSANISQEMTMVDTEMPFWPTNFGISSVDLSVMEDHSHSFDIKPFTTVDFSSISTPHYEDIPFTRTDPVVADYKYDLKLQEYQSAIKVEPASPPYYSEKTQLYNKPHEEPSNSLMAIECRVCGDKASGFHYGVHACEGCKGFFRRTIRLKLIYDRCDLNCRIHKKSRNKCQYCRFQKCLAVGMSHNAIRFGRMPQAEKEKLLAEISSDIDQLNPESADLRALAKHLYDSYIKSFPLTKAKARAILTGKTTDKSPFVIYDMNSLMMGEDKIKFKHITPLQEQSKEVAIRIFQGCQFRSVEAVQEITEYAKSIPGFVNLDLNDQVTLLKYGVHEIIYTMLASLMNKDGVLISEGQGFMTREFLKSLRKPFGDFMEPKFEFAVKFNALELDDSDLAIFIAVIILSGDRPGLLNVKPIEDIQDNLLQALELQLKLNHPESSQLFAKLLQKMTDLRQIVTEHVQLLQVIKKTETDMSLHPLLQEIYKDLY
Method: (§1) Therefore, in order to understand a regulation mechanism of sLZIP in the PPARγ2 transcriptional activity by binding to the FABP4 promoter region, an effect of sLZIP on the interaction between PPARγ2 and HDAC3 was examined. For this purpose, 293T cells were transfected with GST-HDAC3, Myc-PPARγ2 and Flag-sLZIP, and were treated or not treated with 10 nM of RZD for 24 hours. Cell lysates were subjected to GST pull-down analysis using a glutathione 4B bead, and a protein complex was analyzed in SDS-PAGE, and then immunoblotted with anti-GST, anti-Myc and anti-Flag antibodies (FIG. 6A). GST-HDAC3, GST-PPARγ2, Myc-PPARγ2, Flag-sLZIP and Ha-UB were expressed in the 293T cells, and the cells were treated with 10 nM of RZD for 24 hours. Cell lysates were subjected to GST pull-down analysis (FIG. 6B). GST-PPARγ2 and Flag-sLZIP were expressed in the 293T cells and treated with 10 nM of RZD for 24 hours. Cell lysates were subjected to GST pull-down analysis, and a protein complex was analyzed in SDS-PAGE, and then immunoblotted with anti-PGC1α, anti-GST and anti-Flag antibodies (FIG. 6C).

[2] = target: T2, HDAC3 (Homo sapiens, UniProt O15379); test: HDAC3 ubiquitination, GST pull-down with Ha-UB in 293T cells; format: cell-based; details: ligand treated (10 nM RZD, 24 hours)
T2 construct: expressed in transfected cells; host or cells: 293T
Method: as §1

[3] = system: BMMs (bone marrow macrophages)-derived mature osteoclasts; test: Osteoclast marker mRNA in osteoclasts derived from bone marrow macrophages of sLZIP TG mice, real-time PCR; format: cell-based, mouse; details: RANKL 100 ng/mL and M-CSF 30 ng/mL, wild type versus sLZIP TG mice
Method: Real-time PCR was performed in LightCycler 480 using a SYBR Green Master Mix (Roche, Mannheim, Germany). β-actin was used as an internal control group. A target gene expression level rate with respect to β-actin was calculated using CT method. A Ct value is defined as a PCR cycle number at which a fluorescence signal reaches a fixed target threshold. Experiments were technically repeated three times for each experiment.
When a bone is initially developed during an embryo, cartilage is formed and hardened to a bone according to a so-called ossification (or osteogenesis) process. In order to examine whether sLZIP-mediated osteogenesis is associated with cartilage development, an effect of sLZIP in chondrocyte differentiation was examined. For this purpose, ATDC5 cells were temporarily transfected with sLZIP at different contents (0.1 μg to 0.5 μg). Total RNA was extracted from the cells, and an mRNA expression level of a chondrocyte marker was measured using RT-PCR analysis (FIG. 8A) and real-time PCR (FIG. 8B). GAPDH was used as an internal control group. An experiment was repeated three times. […] Total RNA was extracted from the mature osteoclasts, and an mRNA expression level of an osteoclast marker was measured using real-time PCR (FIG. 8D). […]

[4] = target: T3, PPARγ2 and PGC1α (Homo sapiens, UniProt P37231); test: GST pull-down, coactivator PGC1α on PPARγ2; format: binding; details: 10 nM RZD for 24 hours
T3 construct: expressed in transfected cells; host or cells: 293T (PGC1α endogenous)
T3 sequence (P37231 1-505): T1 sequence (P37231 1-505)
Method: as §1

T2 sequence (O15379 whole entry, species assumed): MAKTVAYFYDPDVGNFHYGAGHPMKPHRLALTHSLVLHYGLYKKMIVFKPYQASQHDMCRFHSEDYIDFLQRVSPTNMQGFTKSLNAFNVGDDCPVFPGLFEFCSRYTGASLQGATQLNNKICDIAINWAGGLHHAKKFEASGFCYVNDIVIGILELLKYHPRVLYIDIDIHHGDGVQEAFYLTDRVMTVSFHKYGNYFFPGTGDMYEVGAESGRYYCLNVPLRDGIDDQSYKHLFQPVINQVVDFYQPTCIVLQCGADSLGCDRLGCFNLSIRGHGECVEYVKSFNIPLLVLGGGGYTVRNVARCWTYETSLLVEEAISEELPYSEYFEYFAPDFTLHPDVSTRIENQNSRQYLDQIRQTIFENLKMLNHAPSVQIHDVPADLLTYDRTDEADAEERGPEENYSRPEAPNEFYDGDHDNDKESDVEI

HDAC3 ubiquitination [2]: inhibited HDAC3 ubiquitination | complementing of coactivator PGC-la for PPARγ2 [4]: inhibited
B1: sLZIP: human small leucine-zipper protein, isoform of LZIP, 354 amino acids, no transmembrane domain, GenBank FJ263669, SEQ ID NO: 1 (protein, listed as Homo sapiens)
chain: MELELDAGDQDLLAFLLEESGDLGTAPDEAVRAPLDWALPLSEVPSDWEVDDLLCSLLSPPASLNILSSSNPCLVHHDHTYSLPRETVSMDLESESCRKEGTQMTPQHMEELAEQEIARLVLTDEEKSLLEKEGLILPETLPLTKTEEQILKRVRRKIRNKRSAQESRRKKKVYVGGLESRVLKYTAQNMELQNKVQLLEEQNLSLLDQLRKLQAMVIEISNKTSSSSMYSSDTRGSLPAEHGVLSRQLRALPSEDPYQLELPALQSEVPKDSTHQWLDGSDCVLQAPGNTSCLLHYMPQAPSAEPPLEWPFPDLFSEPLCRGPILPLQANLTRKGGWLPTGSPSVILQDRYSG
interaction between PPARγ2 and HDAC3 [1]: enhanced interaction between PPARγ2 and HDAC3 | osteoclast markers (Oscar, Ctsk, TARP) [3]: no difference
